Test results taken from US10344077.

Key:
[1] = target: T1, Centromere B (UniProt P07199); test: AtheNA, Ab 25 ug/ml
T1 sequence (looked up): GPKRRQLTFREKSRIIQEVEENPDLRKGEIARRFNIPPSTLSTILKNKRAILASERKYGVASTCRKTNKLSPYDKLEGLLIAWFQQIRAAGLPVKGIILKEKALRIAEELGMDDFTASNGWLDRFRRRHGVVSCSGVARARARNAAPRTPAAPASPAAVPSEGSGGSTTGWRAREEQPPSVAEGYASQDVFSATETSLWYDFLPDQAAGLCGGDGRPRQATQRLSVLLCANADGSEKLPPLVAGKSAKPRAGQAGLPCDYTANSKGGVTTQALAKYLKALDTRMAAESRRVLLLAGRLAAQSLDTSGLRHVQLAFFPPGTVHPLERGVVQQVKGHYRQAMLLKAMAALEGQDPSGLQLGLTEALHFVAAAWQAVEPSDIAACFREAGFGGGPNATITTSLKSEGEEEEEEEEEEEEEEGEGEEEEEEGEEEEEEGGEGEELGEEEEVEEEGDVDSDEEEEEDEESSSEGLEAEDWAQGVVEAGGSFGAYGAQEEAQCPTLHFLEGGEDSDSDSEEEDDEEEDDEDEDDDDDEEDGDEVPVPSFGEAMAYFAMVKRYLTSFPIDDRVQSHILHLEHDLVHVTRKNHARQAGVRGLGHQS

[2] = target: Histones; test: AtheNA, Ab 25 ug/ml
[3] = target: T2, Jo-1 (UniProt P12081); test: AtheNA, Ab 25 ug/ml
T2 sequence (looked up): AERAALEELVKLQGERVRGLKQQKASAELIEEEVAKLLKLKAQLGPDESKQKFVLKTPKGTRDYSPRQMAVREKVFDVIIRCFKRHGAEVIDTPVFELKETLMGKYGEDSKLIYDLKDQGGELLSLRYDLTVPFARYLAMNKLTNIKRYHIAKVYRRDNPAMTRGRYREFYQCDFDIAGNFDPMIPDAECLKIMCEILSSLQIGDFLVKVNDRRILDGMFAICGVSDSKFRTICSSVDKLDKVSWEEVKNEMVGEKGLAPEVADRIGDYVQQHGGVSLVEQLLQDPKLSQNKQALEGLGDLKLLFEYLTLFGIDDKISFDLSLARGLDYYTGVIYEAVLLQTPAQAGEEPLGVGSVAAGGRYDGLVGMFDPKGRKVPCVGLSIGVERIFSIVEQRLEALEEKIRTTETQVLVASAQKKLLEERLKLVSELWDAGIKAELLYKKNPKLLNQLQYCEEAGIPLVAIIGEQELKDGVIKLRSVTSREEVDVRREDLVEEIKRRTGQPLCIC

[4] = target: RNP (ribonucleoprotein); test: AtheNA, Ab 25 ug/ml
[5] = target: SSA; test: AtheNA, Ab 25 ug/ml
[6] = target: SSB (UniProt P05455); test: AtheNA, Ab 25 ug/ml
SSB, sequence (P05455 whole entry): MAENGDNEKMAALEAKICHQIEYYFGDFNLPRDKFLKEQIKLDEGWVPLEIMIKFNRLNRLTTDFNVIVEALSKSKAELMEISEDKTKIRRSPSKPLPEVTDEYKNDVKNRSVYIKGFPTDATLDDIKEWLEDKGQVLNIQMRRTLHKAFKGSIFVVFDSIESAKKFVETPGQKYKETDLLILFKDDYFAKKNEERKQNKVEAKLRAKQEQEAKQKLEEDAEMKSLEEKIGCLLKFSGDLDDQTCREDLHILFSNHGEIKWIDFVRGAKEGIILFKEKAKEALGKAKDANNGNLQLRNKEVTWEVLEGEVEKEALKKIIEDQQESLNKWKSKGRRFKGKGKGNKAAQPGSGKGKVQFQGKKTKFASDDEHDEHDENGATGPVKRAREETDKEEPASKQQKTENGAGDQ

[7] = target: Scl-70 (UniProt P11387); test: AtheNA, Ab 25 ug/ml
Scl-70, sequence (P11387 2-765 limits assumed): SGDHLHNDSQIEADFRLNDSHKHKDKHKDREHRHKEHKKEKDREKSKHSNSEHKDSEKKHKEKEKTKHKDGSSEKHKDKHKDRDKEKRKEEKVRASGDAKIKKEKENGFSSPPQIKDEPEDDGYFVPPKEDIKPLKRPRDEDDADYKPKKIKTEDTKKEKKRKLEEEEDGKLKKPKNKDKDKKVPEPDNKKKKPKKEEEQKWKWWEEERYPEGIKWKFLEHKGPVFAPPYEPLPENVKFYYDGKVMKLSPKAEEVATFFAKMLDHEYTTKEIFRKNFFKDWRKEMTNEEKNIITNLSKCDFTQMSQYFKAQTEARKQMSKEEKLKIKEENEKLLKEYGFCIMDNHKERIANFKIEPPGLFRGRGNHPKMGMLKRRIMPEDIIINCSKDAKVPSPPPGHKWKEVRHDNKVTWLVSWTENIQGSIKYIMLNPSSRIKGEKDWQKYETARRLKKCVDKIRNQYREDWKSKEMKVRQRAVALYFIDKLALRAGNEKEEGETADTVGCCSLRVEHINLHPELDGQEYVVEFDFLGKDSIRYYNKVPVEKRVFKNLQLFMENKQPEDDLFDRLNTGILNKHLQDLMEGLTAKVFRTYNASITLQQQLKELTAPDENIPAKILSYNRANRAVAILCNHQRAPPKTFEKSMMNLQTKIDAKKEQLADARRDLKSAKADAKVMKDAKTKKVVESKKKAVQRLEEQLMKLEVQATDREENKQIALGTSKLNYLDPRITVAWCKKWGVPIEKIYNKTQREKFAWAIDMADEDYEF

[8] = target: Sm (Smith antigen); test: AtheNA, Ab 25 ug/ml
[9] = target: T1, Centromere B; test: AtheNA, Ab 50 ug/ml
[10] = target: Histones; test: AtheNA, Ab 50 ug/ml
[11] = target: T2, Jo-1; test: AtheNA, Ab 50 ug/ml
[12] = target: RNP (ribonucleoprotein); test: AtheNA, Ab 50 ug/ml
[13] = target: SSA; test: AtheNA, Ab 50 ug/ml
[14] = target: SSB (UniProt P05455); test: AtheNA, Ab 50 ug/ml
[15] = target: Scl-70 (UniProt P11387); test: AtheNA, Ab 50 ug/ml
[16] = target: Sm (Smith antigen); test: AtheNA, Ab 50 ug/ml
[17] = target: T1, Centromere B; test: AtheNA, Ab 12.5 ug/ml
[18] = target: Histones; test: AtheNA, Ab 12.5 ug/ml
[19] = target: T2, Jo-1; test: AtheNA, Ab 12.5 ug/ml
[20] = target: RNP (ribonucleoprotein); test: AtheNA, Ab 12.5 ug/ml
[21] = target: SSA; test: AtheNA, Ab 12.5 ug/ml
[22] = target: SSB (UniProt P05455); test: AtheNA, Ab 12.5 ug/ml
[23] = target: Scl-70 (UniProt P11387); test: AtheNA, Ab 12.5 ug/ml
[24] = target: Sm (Smith antigen); test: AtheNA, Ab 12.5 ug/ml
[25] = target: T1, Centromere B; test: AtheNA, Ab 6.25 ug/ml
[26] = target: Histones; test: AtheNA, Ab 6.25 ug/ml
[27] = target: T2, Jo-1; test: AtheNA, Ab 6.25 ug/ml
[28] = target: RNP (ribonucleoprotein); test: AtheNA, Ab 6.25 ug/ml
[29] = target: SSA; test: AtheNA, Ab 6.25 ug/ml
[30] = target: SSB (UniProt P05455); test: AtheNA, Ab 6.25 ug/ml
[31] = target: Scl-70 (UniProt P11387); test: AtheNA, Ab 6.25 ug/ml
[32] = target: Sm (Smith antigen); test: AtheNA, Ab 6.25 ug/ml
[33] = target: T1, Centromere B; test: AtheNA, Ab 25 ug/ml; remark: listed apart in the source
[34] = target: Histones; test: AtheNA, Ab 25 ug/ml; remark: listed apart in the source
[35] = target: T2, Jo-1; test: AtheNA, Ab 25 ug/ml; remark: listed apart in the source
[36] = target: RNP (ribonucleoprotein); test: AtheNA, Ab 25 ug/ml; remark: listed apart in the source
[37] = target: SSA; test: AtheNA, Ab 25 ug/ml; remark: listed apart in the source
[38] = target: SSB (UniProt P05455); test: AtheNA, Ab 25 ug/ml; remark: listed apart in the source
[39] = target: Scl-70 (UniProt P11387); test: AtheNA, Ab 25 ug/ml; remark: listed apart in the source
[40] = target: Sm (Smith antigen); test: AtheNA, Ab 25 ug/ml; remark: listed apart in the source
[41] = target: T2, Jo-1; test: AtheNA, Ab 50 ug/ml; remark: listed apart in the source
[42] = target: SSB (UniProt P05455); test: AtheNA, Ab 50 ug/ml; remark: listed apart in the source

Substance: DH270IA1 (antibody)
- Athena reading [1]: 5
- Athena reading [2]: 4
- Athena reading [3]: 3
- Athena reading [4]: 2
- Athena reading [5]: 3
- Athena reading [6]: 6
- Athena reading [7]: 1
- Athena reading [8]: 5
- Athena reading [9]: 10
- Athena reading [10]: 9
- Athena reading [11]: 5
- Athena reading [12]: 2
- Athena reading [13]: 5
- Athena reading [14]: 6
- Athena reading [15]: 4
- Athena reading [16]: 5
- Athena reading [17]: 3
- Athena reading [18]: 4
- Athena reading [19]: 6
- Athena reading [20]: 3
- Athena reading [21]: 3
- Athena reading [22]: 6
- Athena reading [23]: 2
- Athena reading [24]: 5
- Athena reading [25]: 2
- Athena reading [26]: 2
- Athena reading [27]: 5
- Athena reading [28]: 2
- Athena reading [29]: 5
- Athena reading [30]: 1
- Athena reading [31]: 2
- Athena reading [32]: 3

Substance: 4E10 IgG1 (antibody)
- Athena reading (relative luminescence units) [1]: 3
- Athena reading (relative luminescence units) [2]: 10
- Athena reading (relative luminescence units) [3]: 160
- Athena reading (relative luminescence units) [4]: 3
- Athena reading (relative luminescence units) [5]: 33
- Athena reading (relative luminescence units) [6]: 227
- Athena reading (relative luminescence units) [7]: 1
- Athena reading (relative luminescence units) [8]: 2
- Athena reading (relative luminescence units) [11]: 190
- Athena reading (relative luminescence units) [14]: 263
- Athena reading (relative luminescence units) [33]: 9
- Athena reading (relative luminescence units) [34]: 24
- Athena reading (relative luminescence units) [35]: 206
- Athena reading (relative luminescence units) [36]: 20
- Athena reading (relative luminescence units) [37]: 81
- Athena reading (relative luminescence units) [38]: 189
- Athena reading (relative luminescence units) [39]: 4
- Athena reading (relative luminescence units) [40]: 46
- Athena reading (relative luminescence units) [41]: 227
- Athena reading (relative luminescence units) [42]: 207
- Athena reading (relative luminescence units) [17]: 1
- Athena reading (relative luminescence units) [18]: 7
- Athena reading (relative luminescence units) [19]: 131
- Athena reading (relative luminescence units) [20]: 3
- Athena reading (relative luminescence units) [21]: 21
- Athena reading (relative luminescence units) [22]: 199
- Athena reading (relative luminescence units) [23]: 0
- Athena reading (relative luminescence units) [24]: 3
- Athena reading (relative luminescence units) [25]: 2
- Athena reading (relative luminescence units) [26]: 6
- Athena reading (relative luminescence units) [27]: 113
- Athena reading (relative luminescence units) [28]: 3
- Athena reading (relative luminescence units) [29]: 17
- Athena reading (relative luminescence units) [30]: 178
- Athena reading (relative luminescence units) [31]: 1
- Athena reading (relative luminescence units) [32]: 3

Substance: synagis (antibody)
- Athena reading (relative luminescence units) [1]: 4
- Athena reading (relative luminescence units) [2]: 5
- Athena reading (relative luminescence units) [3]: 2
- Athena reading (relative luminescence units) [4]: 4
- Athena reading (relative luminescence units) [5]: 3
- Athena reading (relative luminescence units) [6]: 7
- Athena reading (relative luminescence units) [7]: 2
- Athena reading (relative luminescence units) [8]: 3
- Athena reading (relative luminescence units) [33]: 2
- Athena reading (relative luminescence units) [34]: 2
- Athena reading (relative luminescence units) [35]: 4
- Athena reading (relative luminescence units) [36]: 0
- Athena reading (relative luminescence units) [37]: 11
- Athena reading (relative luminescence units) [38]: 4
- Athena reading (relative luminescence units) [40]: 4
- Athena reading (relative luminescence units) [17]: 2
- Athena reading (relative luminescence units) [18]: 3
- Athena reading (relative luminescence units) [19]: 6
- Athena reading (relative luminescence units) [20]: 3
- Athena reading (relative luminescence units) [21]: 2
- Athena reading (relative luminescence units) [22]: 5
- Athena reading (relative luminescence units) [23]: 3
- Athena reading (relative luminescence units) [24]: 7
- Athena reading (relative luminescence units) [25]: 2
- Athena reading (relative luminescence units) [26]: 3
- Athena reading (relative luminescence units) [27]: 1
- Athena reading (relative luminescence units) [28]: 3
- Athena reading (relative luminescence units) [29]: 2
- Athena reading (relative luminescence units) [30]: 5
- Athena reading (relative luminescence units) [31]: 2
- Athena reading (relative luminescence units) [32]: 2

Substance: CH235UA/293i (antibody)
- Athena reading (relative luminescence units) [33]: 3
- Athena reading (relative luminescence units) [34]: 3
- Athena reading (relative luminescence units) [35]: 5
- Athena reading (relative luminescence units) [36]: 4
- Athena reading (relative luminescence units) [37]: 9
- Athena reading (relative luminescence units) [38]: 3
- Athena reading (relative luminescence units) [39]: 3
- Athena reading (relative luminescence units) [40]: 6
- Athena reading (relative luminescence units) [17]: 3
- Athena reading (relative luminescence units) [18]: 4
- Athena reading (relative luminescence units) [19]: 5
- Athena reading (relative luminescence units) [20]: 3
- Athena reading (relative luminescence units) [21]: 9
- Athena reading (relative luminescence units) [22]: 4
- Athena reading (relative luminescence units) [23]: 3
- Athena reading (relative luminescence units) [24]: 6
- Athena reading (relative luminescence units) [25]: 2
- Athena reading (relative luminescence units) [26]: 2
- Athena reading (relative luminescence units) [27]: 3
- Athena reading (relative luminescence units) [28]: 2
- Athena reading (relative luminescence units) [29]: 10
- Athena reading (relative luminescence units) [30]: 5
- Athena reading (relative luminescence units) [31]: 3
- Athena reading (relative luminescence units) [32]: 5
